Test results published in US20210115146A1.

Legend:
[1] = molecular target: human EGFR (cell surface) (human) (UniProt P00533); assay: FACS competition on A431 cells, blocked ligand EGF-biotin, MFI is the EGF-biotin signal; upper panel and table; IC50 cell reads N/A, no inhibition
[2] = molecular target: mouse EGFR (cell surface) (mouse) (UniProt Q01279); assay: FACS binding to W562-CHO-K1.mPro1.F3 cells (mouse EGFR), lower panel and table; EC50 cell reads N/A, curve flat
[3] = molecular target: human EGFR (cell surface) (human) (UniProt P00533); assay: FACS competition on A431 cells, blocked ligand EGF-biotin, MFI is the EGF-biotin signal; lower panel and table; IC50 cell reads N/A, no inhibition
[4] = molecular target: Macaca fascicularis EGFR (cell surface) (Macaca fascicularis); assay: FACS binding to W562-CHO-K1.cPro1.H6 cells (monkey EGFR), lower panel and table; EC50 cell reads N/A, curve flat
[5] = molecular target: human EGFR (cell surface) (human) (UniProt P00533); assay: FACS binding to A431 cells, lower panel and table; curve flat
[6] = molecular target: human EGFR (cell surface) (human) (UniProt P00533); assay: FACS binding to A431 cells, lower panel and table; the curve is flat at the baseline, so this is the fit of a flat curve (see non_binding)
[7] = molecular target: Macaca fascicularis EGFR (cell surface) (Macaca fascicularis); assay: FACS binding to W562.CHOK1.cPro1.H6 cells (monkey EGFR), upper panel and table; the curve is flat at the baseline, so this is the fit of a flat curve (see non_binding)
[8] = molecular target: Macaca fascicularis EGFR (cell surface) (Macaca fascicularis); assay: FACS binding to W562.CHOK1.cPro1.H6 cells (monkey EGFR), upper panel and table; curve flat
[9] = molecular target: mouse EGFR (cell surface) (mouse) (UniProt Q01279); assay: FACS binding to mouse EGFR cells; the table head prints W562.CHOK1.cPro1.H6; EC50 cell reads N/A, curve flat
[10] = molecular target: human EGFR (cell surface) (human) (UniProt P00533); assay: FACS binding to A431 cells, upper panel and table; EC50 cell reads N/A, curve flat

- Bottom MFI [1]: 4680 MFI
- TOP MFI [2]: 85.6 MFI
- Bottom MFI [3]: 3890 MFI
- TOP MFI [4]: 54.9 MFI
- TOP MFI [5]: 58.5 MFI
- EC50 [6]: 0.01 nM
- EC50 [7]: 0.07 nM
- Top MFI [8]: 35.6 MFI
- Top MFI [9]: 32.3 MFI
- Top MFI [10]: 35.1 MFI
Substance: Isotype (antibody)
